Test results reported in the supplement of paper PMC9876800.

Tested on: peptide library, one residue held at a place counted from the S/T acceptor
Test: relative phosphorylation of the sub-library (ratio to the mean residue at this position); higher = residue favoured
Details: human
Procedure, shortened: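 Purified recombinant kinases (human or orthologue constructs) were incubated in 384-well plates with biotinylated degenerate peptide sub-libraries, each fixing one residue at one position around a central Ser/Thr. Peptides were at 50 μM, with 50 μM ATP spiked with γ-32P-ATP, for 90 min under kinase-specific conditions. Spots on streptavidin membranes were phosphorimaged and quantified by densitometry. Relative sub-library phosphorylation is a ratio to the mean residue at that position.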

CSNK1A1, construct: Full length, sequence (P48729 whole entry, looked up): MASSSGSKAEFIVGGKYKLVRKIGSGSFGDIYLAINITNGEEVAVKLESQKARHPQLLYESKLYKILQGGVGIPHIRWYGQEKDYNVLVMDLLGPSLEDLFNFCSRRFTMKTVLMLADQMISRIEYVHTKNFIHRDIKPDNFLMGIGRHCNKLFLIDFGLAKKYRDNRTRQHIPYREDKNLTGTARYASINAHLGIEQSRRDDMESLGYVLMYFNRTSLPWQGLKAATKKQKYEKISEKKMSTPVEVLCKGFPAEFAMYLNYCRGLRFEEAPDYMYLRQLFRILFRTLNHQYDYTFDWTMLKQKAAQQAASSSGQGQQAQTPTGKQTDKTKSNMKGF
SBK1, construct: Full length, sequence (Q52WX2 whole entry, looked up): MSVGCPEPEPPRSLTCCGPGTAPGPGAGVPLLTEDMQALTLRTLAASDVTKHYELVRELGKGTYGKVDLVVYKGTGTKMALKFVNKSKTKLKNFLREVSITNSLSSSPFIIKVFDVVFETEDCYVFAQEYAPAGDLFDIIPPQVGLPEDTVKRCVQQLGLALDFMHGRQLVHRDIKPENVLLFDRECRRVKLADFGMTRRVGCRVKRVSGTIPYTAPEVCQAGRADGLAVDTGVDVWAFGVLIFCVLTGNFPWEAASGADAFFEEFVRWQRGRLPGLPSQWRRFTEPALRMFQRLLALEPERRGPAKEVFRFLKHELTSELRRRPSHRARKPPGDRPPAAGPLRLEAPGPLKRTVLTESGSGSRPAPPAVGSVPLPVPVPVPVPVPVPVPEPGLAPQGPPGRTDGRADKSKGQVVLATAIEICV
HIPK3, construct: aa161-562, sequence (Q9H422 161-562, looked up): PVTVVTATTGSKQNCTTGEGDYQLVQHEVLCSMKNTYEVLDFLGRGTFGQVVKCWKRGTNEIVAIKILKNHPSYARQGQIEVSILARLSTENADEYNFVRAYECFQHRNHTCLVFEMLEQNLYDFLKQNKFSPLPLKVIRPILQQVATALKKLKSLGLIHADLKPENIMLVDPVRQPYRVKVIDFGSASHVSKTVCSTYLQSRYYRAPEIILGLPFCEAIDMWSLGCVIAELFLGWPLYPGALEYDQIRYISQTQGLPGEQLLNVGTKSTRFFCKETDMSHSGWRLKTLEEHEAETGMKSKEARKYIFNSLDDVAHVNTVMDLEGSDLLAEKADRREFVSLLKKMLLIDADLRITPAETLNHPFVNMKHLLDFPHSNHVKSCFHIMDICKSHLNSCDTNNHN
IRAK4, construct: aa104-end, sequence (Q9NWZ3 104-460, looked up): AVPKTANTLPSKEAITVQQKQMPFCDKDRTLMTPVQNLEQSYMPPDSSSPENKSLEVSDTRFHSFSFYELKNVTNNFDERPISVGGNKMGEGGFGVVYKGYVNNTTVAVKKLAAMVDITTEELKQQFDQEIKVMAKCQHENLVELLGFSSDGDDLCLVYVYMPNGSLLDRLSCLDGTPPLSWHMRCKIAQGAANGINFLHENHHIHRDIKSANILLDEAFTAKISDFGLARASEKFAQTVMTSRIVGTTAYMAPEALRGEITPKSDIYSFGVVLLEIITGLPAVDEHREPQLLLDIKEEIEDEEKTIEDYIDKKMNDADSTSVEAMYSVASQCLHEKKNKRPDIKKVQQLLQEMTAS

CSNK1A1, construct: Full length (from UniProt P48729)
relative phosphorylation
Details | at +1 | at +2 | at +3 | at +4 | at -1 | at -2 | at -3 | at -4 | at -5
A fixed | 0.898 | 1.02 | 1 | 1.11 | 1.24 | 2.02 | 0.811 | 1.17 | 1.13
D fixed | 0.691 | 0.553 | 0.8 | 1.09 | 0.696 | 0.92 | 3.33 | 1.38 | 1.2
E fixed | 1.21 | 0.343 | 0.994 | 0.958 | 1.01 | 1.44 | 3.21 | 1.74 | 1.17
F fixed | 0.725 | 1.5 | 1.2 | 1.18 | 0.665 | 0.688 | 0.558 | 0.898 | 1.06
G fixed | 0.869 | 0.952 | 1.76 | 1.1 | 1.08 | 1.04 | 0.749 | 1.11 | 1
H fixed | 1.17 | 1.65 | 1.64 | 1.09 | 1.17 | 0.881 | 0.579 | 0.933 | 1.06
I fixed | 1.59 | 1.27 | 0.695 | 0.869 | 0.671 | 0.81 | 0.625 | 0.754 | 0.829
K fixed | 0.509 | 0.699 | 0.6 | 0.782 | 1.1 | 0.705 | 0.633 | 0.734 | 0.956
L fixed | 1.12 | 0.726 | 0.754 | 0.865 | 0.76 | 0.837 | 0.581 | 0.677 | 0.969
M fixed | 1.1 | 0.892 | 1.01 | 0.946 | 1.04 | 0.897 | 0.562 | 0.744 | 0.901
N fixed | 1.15 | 0.742 | 0.776 | 0.737 | 1.24 | 1.09 | 0.831 | 0.915 | 0.824
P fixed | 0.639 | 1.09 | 0.847 | 0.989 | 1.14 | 1.38 | 0.826 | 1.09 | 1.43
Q fixed | 1.22 | 0.626 | 0.727 | 0.848 | 1.61 | 1.08 | 0.75 | 0.706 | 0.717
R fixed | 0.59 | 0.632 | 0.552 | 0.628 | 1.04 | 0.824 | 0.746 | 0.74 | 0.768
V fixed | 2.02 | 0.985 | 0.711 | 0.923 | 0.787 | 0.986 | 0.595 | 0.692 | 0.78
W fixed | 0.738 | 1.59 | 1.38 | 1.46 | 0.898 | 0.635 | 0.628 | 1.67 | 1.16
Y fixed | 0.771 | 1.73 | 1.55 | 1.44 | 0.839 | 0.763 | 0.987 | 1.04 | 1.04
pThr fixed | 3.36 | 0.673 | 1.04 | 3.07 | 1.48 | 5.81 | 100 | 10.8 | 2.93
pTyr fixed | 1.32 | 6.1 | 4.04 | 2.48 | 1.76 | 3.06 | 5.64 | 10.7 | 3.72

SBK1, construct: Full length (from UniProt Q52WX2)
relative phosphorylation
Details | at +1 | at +2 | at +3 | at +4 | at -1 | at -2 | at -3 | at -4 | at -5
A fixed | 0.96 | 0.91 | 0.834 | 0.989 | 0.983 | 1.24 | 0.407 | 1.08 | 0.746
D fixed | 0.948 | 1.5 | 1.36 | 1.18 | 1.06 | 0.195 | 0.0944 | 0.269 | 0.195
E fixed | 0.863 | 1.29 | 1.41 | 1.01 | 0.51 | 0.239 | 0.113 | 0.58 | 0.186
F fixed | 0.737 | 1 | 0.925 | 0.851 | 0.808 | 0.782 | 0.161 | 0.922 | 2.33
G fixed | 1.32 | 1.01 | 1.18 | 1.25 | 1.22 | 0.42 | 0.151 | 0.634 | 0.383
H fixed | 0.958 | 1.36 | 1.11 | 1.14 | 1.38 | 1.02 | 0.37 | 1.29 | 0.5
I fixed | 0.817 | 0.677 | 0.747 | 0.787 | 0.251 | 0.861 | 0.133 | 0.753 | 1.97
K fixed | 0.485 | 0.494 | 0.622 | 0.828 | 0.982 | 1.71 | 1.76 | 1.99 | 0.506
L fixed | 0.93 | 0.881 | 0.812 | 0.905 | 0.862 | 0.957 | 0.166 | 0.656 | 1.83
M fixed | 0.852 | 0.849 | 0.793 | 0.983 | 1.15 | 1.75 | 0.184 | 0.998 | 1.09
N fixed | 1.35 | 1.18 | 1.07 | 1.18 | 1.94 | 0.609 | 0.187 | 0.49 | 0.255
P fixed | 2.53 | 1.08 | 1.64 | 1.69 | 1.74 | 0.27 | 0.188 | 0.275 | 1.15
Q fixed | 1.12 | 1.17 | 1.04 | 0.994 | 1.07 | 1.21 | 0.581 | 1.18 | 0.597
R fixed | 0.531 | 0.682 | 0.619 | 0.709 | 0.828 | 2.71 | 12 | 2.72 | 1.07
V fixed | 0.953 | 0.693 | 0.77 | 0.699 | 0.401 | 1.27 | 0.153 | 0.95 | 1.22
W fixed | 0.834 | 1.05 | 1.09 | 0.958 | 0.658 | 0.792 | 0.198 | 0.926 | 2.21
Y fixed | 0.816 | 1.16 | 0.979 | 0.858 | 1.16 | 0.961 | 0.178 | 1.28 | 0.746
pThr fixed | 0.598 | 1.1 | 1.02 | 1.4 | 0.203 | 0.181 | 0.105 | 0.261 | 0.193
pTyr fixed | 0.717 | 1.35 | 1.36 | 1.6 | 0.745 | 0.215 | 0.0961 | 0.24 | 0.374

IRAK4, construct: aa104-end (from UniProt Q9NWZ3)
relative phosphorylation
Details | at +1 | at +2 | at +3 | at +4 | at -1 | at -2 | at -3 | at -4 | at -5
A fixed | 1 | 0.837 | 0.672 | 0.783 | 0.78 | 1.05 | 0.954 | 1.13 | 1.15
D fixed | 0.163 | 0.147 | 0.24 | 0.423 | 0.303 | 0.404 | 0.555 | 0.603 | 0.602
E fixed | 0.314 | 0.164 | 0.217 | 0.405 | 0.247 | 0.405 | 0.507 | 0.619 | 0.554
F fixed | 1.05 | 1.27 | 1.4 | 0.77 | 0.886 | 0.903 | 0.885 | 0.97 | 0.895
G fixed | 1.13 | 0.45 | 0.698 | 0.935 | 0.636 | 1.31 | 1.36 | 1.22 | 1.29
H fixed | 1.07 | 1.13 | 1.49 | 1.26 | 1.28 | 1.06 | 1.05 | 1.01 | 1.15
I fixed | 0.92 | 1.42 | 1.33 | 0.897 | 0.774 | 0.842 | 0.755 | 0.742 | 0.89
K fixed | 1.94 | 1.43 | 1.56 | 1.89 | 2.3 | 1.23 | 1.53 | 1.46 | 1.52
L fixed | 0.83 | 1.05 | 1.24 | 0.85 | 0.877 | 1.23 | 0.935 | 0.852 | 0.774
M fixed | 1.2 | 1.16 | 1.15 | 1.01 | 1 | 1.57 | 1.03 | 0.907 | 0.837
N fixed | 0.705 | 0.669 | 0.651 | 1.04 | 1 | 1.14 | 1.1 | 1.14 | 0.997
P fixed | 0.139 | 0.406 | 0.252 | 0.961 | 0.666 | 1.04 | 1.11 | 1.12 | 1.22
Q fixed | 1.34 | 0.862 | 0.919 | 0.983 | 0.973 | 0.979 | 0.964 | 0.864 | 0.866
R fixed | 2.58 | 1.99 | 1.76 | 1.83 | 2.31 | 1.34 | 1.65 | 1.5 | 1.59
V fixed | 1.08 | 1.47 | 1.18 | 0.778 | 0.942 | 0.811 | 0.775 | 0.891 | 0.812
W fixed | 0.778 | 1 | 1.11 | 1.25 | 0.755 | 0.814 | 0.968 | 1.01 | 0.881
Y fixed | 0.755 | 1.53 | 1.12 | 0.942 | 1.26 | 0.878 | 0.864 | 0.957 | 0.966
pThr fixed | 0.276 | 0.274 | 0.341 | 0.33 | 0.352 | 0.678 | 0.866 | 0.752 | 0.87
pTyr fixed | 0.203 | 0.177 | 0.441 | 0.323 | 0.276 | 0.545 | 0.65 | 0.539 | 0.763

HIPK3, construct: aa161-562 (from UniProt Q9H422)
relative phosphorylation
Details | at +1 | at +2 | at +3 | at +4 | at -1 | at -2 | at -3 | at -4 | at -5
A fixed | 0.905 | 1.05 | 1.03 | 0.883 | 1.43 | 2.27 | 1.26 | 1.07 | 0.866
D fixed | 0.116 | 0.665 | 0.422 | 0.718 | 0.435 | 0.171 | 0.37 | 0.534 | 0.617
E fixed | 0.135 | 0.371 | 0.338 | 0.569 | 0.46 | 0.158 | 0.375 | 0.63 | 0.608
F fixed | 0.541 | 1.27 | 0.965 | 1.07 | 0.843 | 0.617 | 0.713 | 1.33 | 1.32
G fixed | 0.8 | 1.07 | 0.954 | 1.02 | 1.07 | 0.734 | 1.06 | 0.962 | 0.863
H fixed | 0.422 | 1.3 | 0.962 | 1.05 | 0.765 | 0.465 | 0.687 | 0.859 | 1.03
I fixed | 0.656 | 0.842 | 1.26 | 1.17 | 1.07 | 1.24 | 0.682 | 1.05 | 0.913
K fixed | 0.324 | 1.33 | 0.598 | 1.1 | 1.12 | 0.745 | 0.858 | 1.01 | 1.1
L fixed | 0.553 | 1.02 | 1.05 | 0.844 | 0.932 | 0.757 | 0.586 | 0.842 | 1.15
M fixed | 0.706 | 1.34 | 1.2 | 1.05 | 1.17 | 0.835 | 0.752 | 1.09 | 0.951
N fixed | 0.21 | 0.801 | 0.714 | 0.894 | 0.585 | 0.528 | 0.481 | 0.545 | 0.771
P fixed | 8.32 | 0.967 | 2.43 | 1.1 | 1.52 | 2.41 | 0.72 | 1.04 | 1.17
Q fixed | 0.273 | 0.703 | 0.762 | 1.01 | 0.907 | 0.626 | 0.679 | 0.799 | 0.984
R fixed | 1.5 | 1.52 | 1.12 | 1.36 | 2.1 | 3.19 | 6.13 | 2.47 | 1.8
V fixed | 0.649 | 0.847 | 1.22 | 0.951 | 0.929 | 1.2 | 0.614 | 0.918 | 0.812
W fixed | 0.535 | 1 | 0.97 | 1.16 | 0.76 | 0.568 | 0.553 | 0.896 | 0.789
Y fixed | 0.351 | 0.895 | 0.998 | 1.05 | 0.913 | 0.492 | 0.482 | 0.956 | 1.25
pThr fixed | 0.236 | 0.362 | 0.387 | 0.458 | 0.427 | 0.737 | 0.512 | 0.745 | 0.925
pTyr fixed | 0.283 | 0.331 | 0.529 | 0.601 | 0.585 | 0.296 | 0.624 | 0.7 | 0.939
